Source: IntAct's records for PubMed 16083711

B1: DNA mismatch repair protein Mlh1 (Homo sapiens), P40692 (parent)
chain: MSFVAGVIRRLDETVVNRIAAGEVIQRPANAIKEMIENCLDAKSTSIQVIVKEGGLKLIQIQDNGTGIRKEDLDIVCERFTTSKLQSFEDLASISTYGFRGEALASISHVAHVTITTKTADGKCAYRASYSDGKLKAPPKPCAGNQGTQITVEDLFYNIATRRKALKNPSEEYGKILEVVGRYSVHNAGISFSVKKQGETVADVRTLPNASTVDNIRSIFGNAVSRELIEIGCEDKTLAFKMNGYISNANYSVKKCIFLLFINHRLVESTSLRKAIETVYAAYLPKNTHPFLYLSLEISPQNVDVNVHPTKHEVHFLHEESILERVQQHIESKLLGSNSSRMYFTQTLLPGLAGPSGEMVKSTTSLTSSSTSGSSDKVYAHQMVRTDSREQKLDAFLQPLSKPLSSQPQAIVTEDKTDISSGRARQQDEEMLELPAPAEVAAKNQSLEGDTTKGTSEMSEKRGPTSSNPRKRHREDSDVEMVEDDSRKEMTAACTPRRRIINLTSVLSLQEEINEQGHEVLREMLHNHSFVGCVNPQWALAQHQTKLYLLNTTKLSEELFYQILIYDFANFGVLRLSEPAPLFDLAMLALDSPESGWTEEDGPKEGLAEYIVEFLKKKAEMLADYFSLEIDEEGNLIGLPLLIDNYVPPLEGLPIFILRLATEVNWDEEKECFESLSKECAMFYSIRKQYISEESTLSGQQSEVPGSIPNSWKWTVEHIVYKALRSHILPPKHFTEDGNILQLANLPDLYKVFERC
partner: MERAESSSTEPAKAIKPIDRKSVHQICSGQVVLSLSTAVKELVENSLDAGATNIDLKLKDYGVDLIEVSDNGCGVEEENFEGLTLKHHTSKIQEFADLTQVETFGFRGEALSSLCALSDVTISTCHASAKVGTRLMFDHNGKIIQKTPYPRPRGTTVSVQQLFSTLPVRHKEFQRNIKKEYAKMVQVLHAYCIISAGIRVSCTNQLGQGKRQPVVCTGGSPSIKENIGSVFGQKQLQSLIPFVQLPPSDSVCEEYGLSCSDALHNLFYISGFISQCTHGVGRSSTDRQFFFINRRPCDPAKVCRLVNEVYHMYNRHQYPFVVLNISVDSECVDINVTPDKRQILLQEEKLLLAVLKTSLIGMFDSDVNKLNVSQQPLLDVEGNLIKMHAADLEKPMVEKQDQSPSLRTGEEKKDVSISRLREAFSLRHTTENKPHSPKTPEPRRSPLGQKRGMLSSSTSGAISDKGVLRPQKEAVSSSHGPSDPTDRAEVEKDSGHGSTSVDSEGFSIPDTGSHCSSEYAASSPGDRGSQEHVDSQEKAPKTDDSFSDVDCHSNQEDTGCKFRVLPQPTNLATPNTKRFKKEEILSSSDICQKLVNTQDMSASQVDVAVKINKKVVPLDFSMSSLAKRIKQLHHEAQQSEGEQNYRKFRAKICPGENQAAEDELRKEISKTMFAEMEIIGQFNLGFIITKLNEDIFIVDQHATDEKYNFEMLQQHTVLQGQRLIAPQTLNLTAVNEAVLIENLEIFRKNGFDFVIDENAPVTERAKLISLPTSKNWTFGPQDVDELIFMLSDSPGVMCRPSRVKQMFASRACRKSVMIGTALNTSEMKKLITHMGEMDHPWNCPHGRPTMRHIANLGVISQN

Variants of: B1
Settings: with pms2_human PMS2, P54278

Effect of a mutation on the interaction, with no effect:
I107R
F80V
C77R
K443Q
I219V
H329P
G67R
S247P
K84E
S93G
P28L
V213M
L155R
A29S
